Laboratory results from paper PMC11624207, “Human PC4 supports telomere stability and viability in cells utilizing the alternative lengthening of telomeres mechanism”.

Target: PC4wt (His-tagged) (human, UniProt P53999 1-127)
Assay: EMSA; EMSA: 50 mM HEPES pH 8, 1 mM DTT, 100 mM NaCl, 0.01% BSA, 2% glycerol; 20 min on ice then 10 min at 25 C; native 8% PAGE, 0.5x TBE, 4 C
Conditions: protein: recombinant, tags: N-terminal 6xHis, chain copies: 2, label: 5'-32P, single strand

Binder	binding result	further results
TTAGGGTTAGGGTTAGGGTTAGGGTTAGGG (ssDNA) [telomeric G-rich (TTAGGG)5]		binding result (G4-capable): binds
CCCTAACCCTAACCCTAACCCTAACCCTAA (ssDNA) [telomeric C-rich (CCCTAA)5]	binds	
TTACGGTTACGGTTACGGTTACGGTTACGG (ssDNA) [mutant telomeric G-rich (TTACGG)5]		binding result (unable to form G4): binds
GGACTCTAGCGTGGATCCTTAAGCTAGAAT (ssDNA) [unrelated oligonucleotide]	binds	
